The values below come from patent US6992063 (TRUSTEES OF PRINCETON UNIVERSITY, dated 2006).

To fix the notation:
T1: DIAP1-BIR1 (residues 1-145) (Drosophila, UniProt Q24306 1-145)
T1 construct: range 1-145; Expressed as a GST fusion; the GST moiety was removed by thrombin cleavage; also called BIR1 domain of DIAP1
T1 sequence (looked up): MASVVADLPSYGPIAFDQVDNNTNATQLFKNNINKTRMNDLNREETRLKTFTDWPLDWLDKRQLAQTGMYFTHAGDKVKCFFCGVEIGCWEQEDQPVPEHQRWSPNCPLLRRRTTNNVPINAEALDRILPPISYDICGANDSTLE

T2: DIAP1-BIR2 (residues 201-325) (Drosophila, UniProt Q24306 201-325)
T2 construct: range 201-325; Expressed as a GST fusion; the GST moiety was removed by thrombin cleavage; also called BIR2 domain of DIAP1; DIAP-BIR2
T2 sequence (looked up): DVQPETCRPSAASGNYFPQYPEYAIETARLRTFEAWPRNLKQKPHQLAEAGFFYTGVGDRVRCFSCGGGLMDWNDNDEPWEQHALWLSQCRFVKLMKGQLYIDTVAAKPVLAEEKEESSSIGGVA

T3: XIAP-BIR3 (residues 238-358), P98170
T3 chain: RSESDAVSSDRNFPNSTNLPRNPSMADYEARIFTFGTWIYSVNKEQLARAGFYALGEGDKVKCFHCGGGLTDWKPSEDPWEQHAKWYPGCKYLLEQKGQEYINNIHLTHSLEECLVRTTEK

T4: Smac (Phe33Asp, residues 1-162), monomeric mutant (human, UniProt Q9NR28 56-217, A selenomethionyl form (Met replaced by Se-Met) was used only for phasing. The native crystals hold the plain protein.)
T4 construct: Residues 1-162 and position 33 count on mature Smac, not on the precursor entry; Expressed in E. coli from pET-3d for crystallisation; a selenomethionyl form was used for phasing; also called mutant Smac protein; monomeric Smac protein
T4 sequence: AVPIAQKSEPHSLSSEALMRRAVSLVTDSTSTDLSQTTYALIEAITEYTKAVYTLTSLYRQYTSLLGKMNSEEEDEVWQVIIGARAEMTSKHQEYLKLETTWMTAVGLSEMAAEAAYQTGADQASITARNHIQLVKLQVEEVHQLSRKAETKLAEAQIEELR

B1: 10-residue Grim peptide (N-terminal peptide of Grim) (peptide)
peptide: AIAYFIPDQA
B2: caspase-9 (protein)
chain: MDEADRRLLRRCRLRLVEELQVDQLWDALLSRELFRPHMIEDIQRAGSGSRRDQARQLIIDLETRGSQALPLFISCLEDTGQDMLASFLRTNRQAAKLSKPTLENLTPVVLRPEIRKPEVLRPETPRPVDIGSGGFGDVGALESLRGNADLAYILSMEPCGHCLIINNVNFCRESGLRTRTGSNIDCEKLRRRFSSLHFMVEVKGDLTAKKMVLALLELAQQDHGALDCCVVVILSHGCQASHLQFPGAVYGTDGCPVSVEKIVNIFNGTSCPSLGGKPKLFFIQACGGEQKDHGFEVASTSPEDESPGSNPEPDATPFQEGLRTFDQLDAISSLPTPSDIFVSYSTFPGFVSWRDPKSGSWYVETLDDIFEQWAHSEDLQSLLLRVANAVSVKGIYKQMPGCFNFLRKKLFFKTS
B3: 10-residue Hid peptide (N-terminal peptide of Hid) (peptide)
peptide: AVPFYLPEGG
B4: XIAP-BIR3 (residues 238-358) (other, mammalian, UniProt P98170 238-358, looked up)
chain: T3 chain
notes: Overexpressed as a GST fusion (pGEX-2T) and purified as in Chai et al. 2000; also called BIR3 domain of XIAP; third BIR domain of XIAP

The target in data set [1] is T1, DIAP1-BIR1 (residues 1-145). Nature of the data set: gel filtration of BIR domain with excess peptide, then reverse phase HPLC and mass spectroscopy. As to the method: (§1) In vitro interaction assay. […] The mixture was fractionated by gel filtration chromatography (Superdex-200, Pharmacia). The protein-containing fractions were analyzed by reverse phase HPLC and mass spectroscopy for detection of the bound peptide.
In general terms: SEC sorts molecules by how far they enter the pores of the column.

The target of data set [2] is T2, DIAP1-BIR2 (residues 201-325). Nature of the data set: gel filtration and mass spectroscopic analyses (data not shown). As to the method:
as §1
Rationale and structure determination.

Data set [3] concerns the target B4. Nature of the data set: isothermal titration calorimetry. (Isothermal titration calorimetry measures the heat released or taken up as one component is titrated into another.)
Data set [4] addresses T3, XIAP-BIR3 (residues 238-358), P98170.
Data set [5] addresses T2, DIAP1-BIR2 (residues 201-325). As to the kind of experiment: isothermal titration calorimetry, 23 °C. As to the method: Isothermal microcalorimetry titration. All proteins and peptides was prepared in 50 mM sodium phosphate buffer, pH 7.5. The Micro Calorimetry System (Microcal, Amherst, Mass.) was used to perform the ITC measurements for the interaction between DIAP1-BIR2 and various synthetic peptides. The titration data, collected at 23° C., were analyzed using the ORIGIN data analysis software (Microcal Software, Northampton, Mass.).

Data set [6] addresses T4, Smac (Phe33Asp, residues 1-162), …. Nature of the data set: reconstituted binary complex, in solution and co-crystallised.
Procedure: Crystallization and data collection. […] At 23° C., the reservoir contained 100 mM citrate buffer, pH 5.5, 5% PEG 4000, and 10% isopropanol. Crystals appeared after 1–4 days and reached a maximum size over a period of 1–3 weeks. Both crystals are in the triclinic space group P1 and contain two complexes in each unit cell. […] Diffraction data were primarily collected using an R-AXIS-IV imaging plate detector mounted on a Rigaku 200HB generator. Derivatives were obtained by soaking crystals in reservoir buffer containing 20% glycerol (v/v) and heavy atoms. The concentration and soaking time for mercury thimerosal were 1 mM and 20 hours, respectively. To collect data at −170° C., crystals were equilibrated in a cryoprotectant buffer containing reservoir buffer plus 20% glycerol (v/v) and were flash frozen in a cold nitrogen stream. The high-resolution native data were collected at the NSLS beamline X4A.

As for B1, the figures for the binding result in data set [1], in data set [2] and in data set [3] were “no binding”, “binds” and “binds”, respectively.

For the molecule B2, the “caspase-9 activity (cleavage of Ac-LEHD-AFC), direct assay” value in data set [4] is “the inhibition of caspase-9 by the BIR3 domain of XIAP”.

Turning to B3, the binding result in data set [1] is given as “no binding”. Moreover, in data set [5], the “fold higher binding affinity than the Grim peptide” value is 6 fold. Also, the “fold difference in binding affinity between the Hid and Grim peptides” value in data set [3] is approximately 100 fold.

B4: the binding result in data set [6] is “binds”.
